Laboratory results taken from article PMC8996237.

How the values were obtained:
[1] = biological target: hCMP-mRBD from a stable CHO suspension cell line (human | HIV-1 JR-FL | SARS-CoV-2) (UniProt P0DTC2); test: SDS-PAGE
[2] = biological target: hCMP-mRBD from a stable HEK293 suspension cell line (human | HIV-1 JR-FL | SARS-CoV-2) (UniProt P0DTC2); test: SDS-PAGE

Substance | stoichiometry N [1] | stoichiometry N [2]
hCMP-mRBD from a stable CHO suspension cell line (from UniProt P0DTC2 332-532) | 3 | –
hCMP-mRBD from a stable HEK293 suspension cell line (from UniProt P0DTC2 332-532) | – | 3
